Assay results from patent publication US20200147199A1 (ROCKEFELLER UNIVERSITY, published 2020).

Experiments:
[1] = biological target: T1, ZIKV E Domain III ([..]), polyhistidine-AviTag, produced in HEK-293-6E cells (ZIKV); test: ELISA on coated ZIKV EDIII
T1 construct: also called ZEDIII; ZIKV EDIII

[2] = biological target: T2, DENV1 EDIII, polyhistidine-AviTag, produced in HEK-293-6E cells (DENV1); test: cross-reactivity ELISA
T2 construct: also called EDIII of DENV1

[3] = biological target: DENV3 EDIII, polyhistidine-AviTag (DENV3); test: cross-reactivity ELISA
[4] = biological target: DENV1 E protein (strain PUO-359) on RVPs or on virus (DENV1, strain PUO-359); test: cell-based or functional assay
[5] = biological target: ZIKV E protein (2015 Puerto Rican PRVABC59 strain) on virus (ZIKV, strain PRVABC59); test: cell-based or functional assay

T2 sequence (P17763 577-674, tags left off): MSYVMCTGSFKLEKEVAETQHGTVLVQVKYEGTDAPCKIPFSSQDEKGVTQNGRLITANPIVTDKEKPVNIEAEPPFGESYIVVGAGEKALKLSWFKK

| Binder | EC50 [1] [µg/mL] | binding result [3] | other results |
| --- | --- | --- | --- |
| Z040 (BRA12_81) (antibody, V domains shown) VH: EVQLLESGGGLVQPGGSLRLSCAASGFTFSTYAMSWVRQAPGKGLEWVSAISGSGRSTYYADSVKGRFTISRDNSKNTLYLQMNSLRGEDTAVYYCAKSSGGHNWNYVDYYYGMDVWGQGTTVTVSS VL: DIQLTQSPSFLSASVGDRVTITCRASQGISSYLAWYQQKPGKAPKLLIYAASTLQSGVPSRFSGSGSGTEFTLTISSLQPEDFATYYCQQLNSYPVTFGPGTKVDIK | > 10 |  | binding result [2]: no binding (tested: 10 µg/ml) |
| Z004 (MEX18_89) (antibody, V domains shown, also called biotin-Z004 (biotinylated form)) VH: EVQLLESGGGLVQPGGSLRLTCATSGFTFRDYAMSWVRQAPGKGLEWVSSYSGIDDSTYYADSVKGRFTISRDNSKSTLSLHMNSLRAEDSALYFCAKDRGPRGVGELFDSWGQGTLVTVSS VL: DIQMTQSPSTLSASVGDRVTITCRASQSISKWLAWYQQKPGKAPKLLIYTTSTLKSGVPSRFSGSGSGTEFTLTISSLQPDDFATYYCQHFYSVPWTFGQGTKVEIK |  | no binding (tested: 10 µg/ml) | IC50, DENV1 luciferase RVPs [4]: 0.0016 µg/mL; IC50, flow cytometry with authentic DENV1 [4]: 0.0164 µg/mL; IC50, plaque reduction neutralization test (PRNT) [5]: 0.0022 µg/mL |
| Z001 (MEX18_21) (antibody, V domains shown) VH: EVQLLESGGGLVQPGGSRRLSCATSGFSFDTYAMSWLRQAPGKGLEWVSSFSGLDDSTYYADSVKGRFTISRDNSKNTLYLQMNSLRAEDTAIYYCAKDRGPRGIGELFDFWGQGTLVTVSS VL: DIQMTQSPSTLSASVGDRVTITCRASQSISRWLAWYQQKPGKAPKLLIYKTSTLKSEVPSRFSGSGSGTEFTLTISSLQPDDFATYYCQHFHSVPWTFGQGTKVEIK |  | no binding (tested: 10 µg/ml) |  |
| Z028 (MEX84_p4-53) (antibody, V domains shown) VH: EVQLLESGGGLVQPGGSLRLSCAASGFTFSAYAMSWVRQAPGKGLEWVSSINGHSDSTYFADSVKGRFTISRDNSKNTLYLQMNSLRAEDTALYYCAKDRLREGIGELFHSWGQGTLVTVSS VL: DIQMTQSPSTLSASIGDRVTITCRASQSITPWLAWYQQKPGKAPKFLIYQTSILESGVPSRFSGSGSGTEFTLTISSLQPDDFATYYCQHYHSYPWTFGQGTKVEIK |  | no binding (tested: 10 µg/ml) |  |
| Z032 (BRA112_24) (antibody, V domains shown) VH: EVQLLESGGRLVQPGGSLTLSCAASGFPFSTYAMSWLRQAPGKGLEWVSGITGDSGSTYYAASVKGRFTISRDNSKNTLYLQMNSLTADDTAVYYCAKDRLHSGLGELFSYWGQGTLVTVSS VL: DIQMTQSPSTLSASVGDRVNITCRASQSINQWLAWYQQKPGKAPKFLMYKASTLETGVPSRFSGSGSGTEFTLTISSLQPDDFATYYCQHYFSYPWTFGQGTKVEIK | 0.0195 |  |  |
| Z035 (BRA112_71) (antibody, V domains shown) VH: EVQLLESGGGLIQPGGSLRLSCAASGFTFSSYAMSWVRQAPGKGLEWVSGISGSGGASDNGASRYYADSVKGRFSISRDNSKNTVYLQMNSLRAEDTAVYYCAKDRLSGGFGELFQKWGQGTLVTVSS VL: DIQMTQSPSTLAASVGDRVTITCRASQNINSWLAWYQQKPGKAPKFLIYKASTLESGAPSRFSGSGSGTEFTLTISSLQPDDFATYYCQHYYSYPYTFGQGTKVEIK |  | no binding (tested: 10 µg/ml) |  |
| Z031 (BRA112_46) (antibody, V domains shown) VH: EVQLLESGGGLVQPGGSLRLSCVASGFTFGSYGMAWVRQAPGKGLEWISSISSIDPSTYYADSVKGRFTVSRDNSENTLYLHMSSLKVEDTAVYFCAKDRLNGGFGELFASWGQGTLVTVSS VL: DIQMTQSPSTLSASVGDSVTITCRASQSISSWLAWYQQKPGKAPKFLIHKASSLESGIPSRFSGSGSGTEFTLTINNLQPDDFATYYCQHYHSYPWTFGQGTKVEIK |  | no binding (tested: 10 µg/ml) |  |
| Z044 (BRA138_46) (antibody, V domains shown) VH: QVQLVQSGAEVKKPGASVKVSCKASGYTFTSTYIHWVRQAPGQGLEWMGIINPSSSNTNYAQKFQGRVTMTRDTSTSTVYMELSSLRSEDTAVYYCARDFGGYSSSSVSDAFDIWGQGTMVTVSS VL: QSALTQPASVSGSPGQSITISCTGTSSDVGSFNLVSWYQQHPGKAPKLIIYEVSKRPSGVSNRFSGSKSGNTASLTISGLQAEDEVHYYCCSYAGSSRFVFGTGTKVTVL | > 10 |  | binding result [2]: no binding (tested: 10 µg/ml) |
| Z006 (MEX105_42) (antibody, V domains shown) VH: EVQLLESGGGLVQPGGSLRLSCAASGFTFKNYAMAWVRQAPGKGLEWVSLLYNSEESTYYADSVKGRFTISRDNSKNTLFLQMNRLRVEDTAVYFCVRDRSNGWSSINLWGRGTLVTVSS VL: DIQMTQSPSTLSASVGDRVTMTCRASQTISGWLAWYQQKPGKAPKLLIYQASRLESGIPSRFSGSGSGTEFTLTISSLQPDDVATYYCQQYSTFWTFGLGTKVEIK |  | no binding (tested: 10 µg/ml) |  |
| Z010 (MEX105_88) (antibody, V domains shown) VH: EVQLLESGGGLVQPGGSLRLSCAASGFTFSNYAMAWVRQAPGKGLEWVSLIYSGDDSTYYADFVKGRFTISRHNSKNTLSLQMNSLRAEDTAIYYCVKDRGTGWSSIVHWGQGTLVTVSS VL: DIQMTQSPSTLSASVGDRVTITCRASQTISNWLAWYQQKPGKAPKLLIYQASSLESGVPSRFSGSGSGTEFTLTISSLQPDDFATYYCQQYSTYWTFGQGTKVEIK |  | no binding (tested: 10 µg/ml) |  |
| Z054 (BRA138_94) (antibody, V domains shown) VH: QLQLQESGPRLVKPSETLFLTCTVSGDSISSSSYFWGWIRQPPGKGLEWIGSISYSGSTYYNPSLKSRVTISVDTSKNQFSLKLSSVTAADTVVYYCAKHLYSSSWNIGSSFDSWGPGTLVTVSS VL: EIVLTQSPATLSLSPGERATLSCRASQSVSIYLAWYQQKPGQAPRLLIYDASSRATGIPARFSGSGSGTDFTLTISSLEPEDFAVYYCQQRSNWPVYTFGQGTKVEIK | > 10 |  | binding result [2]: no binding (tested: 10 µg/ml) |
| Z038 (BRA12_2) (antibody, V domains shown, also called BRA12_02) VH: EVQLLESGGGLVQPGGSLRLSCEASGFTFSNYAMNWVRQAPGKGLEWVSTLGATDNSGDSTYYVESAKGRFTISRDNSKNTLYLQMNSLRVEDTAVYFCAKDRTGNIGAGTGYFDKWGQGTLVTVSS VL: DIQMTQSPSTLSASVGDRVTITCRASHRISGWLAWYQQKPGKAPKLLIYQASGLESGVPSRFSGSGYGTEFTLTISSLQADDFATYYCQQYNNYPWTFGQGTKVEIK |  | no binding (tested: 10 µg/ml) |  |
| Z021 (MEX84_p4-23) (antibody, V domains shown) VH: QVQLQESGPGLVKPSETLSLTCTVSGGSIDTYYWSWIRQTPGKGLEWIGCFYYSVDNHFNPSLESRVTISVDTSKNQFSLKMTSMTASDTAVYYCARNQPGGRAFDYWGPGTLVTVSS VL: EIVLTQSPATLSLSPGQRATLSCRASQSVSNYFAWYQQKPGQAPRLLIYDTSKRATGTPARFSGSGSGTDFTLTISSLEPEDFAVYYCQERNNWPLTWTFGLGTKVEIK |  |  | IC50, DENV1 neutralization (flow cytometry) [4]: 0.0101 µg/mL; IC50, plaque reduction neutralization (PRNT) [5]: 0.004 µg/mL |
